Source: US20040162413A1 (published 2004)
Numbering of substitutions follows the chain as printed. In names and notes the source's numbering stands.

B1: anti-vWF combinatorial library clone C1 Fab (Fab, V domains shown)
VH: EVQLVESGGGLVQPGGSLRLSCAASGFSLGDYGVDWVRQAPGKGLEWVGMIWPDGSTDYNSALQSRFTISRDDSKNSLYLQMNSLKTEDTAVYYCARDPADYGNYNYALDYWGQGTTVTVS
VL: DIQMTQSPSSLSASVGDRVTITCSASQDINDYLNWYQQKPGKAPKLLIYNTSSLHSGVPSRFSGSGSGTDFTLTISSLQPEDFATYYCQQYEDLPWTFGGGTKVEIK
notes: Fab with human CL and CH1
B2: anti-vWF combinatorial library clone C4 Fab (Fab, V domains shown)
VH: B1 VH with P53G, T57V, Y59V
VL: B1 VL with N50G
notes: Fab with human CL and CH1
B3: NMC-4 antibody (parental/donor antibody) (antibody, V domains shown)
VH: VQLLESGPGLVAPSQSLSITCTVSGFSLTDYGVDWVRQPPGKGLEWLGMIWGDGSTDYNSALKSRLSITKDNSKSQVFLKMNSLQTDDTARYYCVRDPADYGNYDYALDYWGQGTSVTVS
VL: SSLSASLGDRVTISCSASQDINKYLNWYQQKPDGAVKLLIFYTSSLHSGVPSRFSGSGSGTDYSLTISNLEPEDIATYYCQQYEKLPWTFGGGTKLEVK
notes: also called parental/donor NMC-4 antibody
B4: Y49K, derivative of clone CW43 made by site-directed mutagenesis (anti-CD40 Fab) (Fab, V domains shown)
VH: QVQLVQSGPELKKPGASVKVSCKASGYAFTTTGMQWVRQAPGQGLEWMGWINTHSGVPKYVEDFKGRFVFSLDTSVSTAYLQISSLKAEDTAVYFCARSGNGNYDLAYFRYWGQGTLVTVSS
VL: EIVLTQSPATLSLSPGERATLSCRASQSISDYLHWYQQKPGQAPRLLIKYASHSISGIPARFSGSGSGTDFTLTISSLEPEDFAVYYCQHGHSFPRTFGGGTKVEIK
notes: Fab, human constant regions; framework identical to clone 1H11; also called clone Y49K
B5: chimeric anti-CD40 Fab (variable regions of murine mAb 40.2.220) (Fab, V domains shown)
VH: QIQLVQSGPELKKPGETVRISCKASGYAFTTTGMQWVQEMPGKGLKWIGWINTHSGVPKYVEDFKGRFAFSLETSANTAYLQISNLKNEDTATYFCVRSGNGNYDLAYFAYWGQGTLVTVSA
VL: DIVLTQSPATLSVTPGDRVSLSCRASQSISDYLHWYQQKSHESPRLLIKYASHSISGIPSRFSGSGSGSDFTLSINSVEPEDVGIYYCQHGHSFPRTFGGGTKLEIK
notes: Fab expressed in bacteria from vector M13IX104CS (human kappa and gamma 1 constant regions, terminal cysteines replaced by serine); purified Fabs carry a six-histidine tag at the C-terminus of the H chain; also called chimeric Fab; chimeric CD40

Legend:
[1] = target: T1, human von Willebrand Factor (human, UniProt P04275 764-2813); experiment: ELISA: human vWF captured on goat anti-human vWF coated plates, Fab dilutions, goat anti-human kappa alkaline phosphatase, O.D. 560 after 30 min
T1 construct: In the ELISA captured on plates by goat anti-human vWF; biotinylated in the plaque lift; also called vWF; human vWF

CD40-Ig fusion protein [2] = target: T2, CD40-Ig fusion protein (UniProt P25942 21-193); experiment: SPR (BIAcore), CD40-Ig immobilised
T2 construct: also called CD40-Ig antigen; CD40 receptor; not shown: Ig part, not described; in the ELISA and capture lift it is detected with goat anti-mouse IgG2b conjugate
T2 sequence (P25942 21-193): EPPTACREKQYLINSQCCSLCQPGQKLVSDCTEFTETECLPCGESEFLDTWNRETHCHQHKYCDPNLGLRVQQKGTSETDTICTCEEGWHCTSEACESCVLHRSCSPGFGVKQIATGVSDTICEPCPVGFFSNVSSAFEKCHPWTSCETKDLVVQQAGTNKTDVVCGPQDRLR

CD40-Ig fusion protein [3] = target: T2, CD40-Ig fusion protein; experiment: SPR (BIAcore), CD40-Ig immobilised, purified Fab in solution

Binder | EC50 (read off the curve) [1] [mg/L] | fold lower affinity against CW43 (CD40-Ig fusion protein [2]) [fold] | Kd (CD40-Ig fusion protein [3]) [µM]
B1 | ~0.02 |  | 
B2 | ~0.02 |  | 
B3 | ~0.03 |  | 
B4 |  | 5 | 0.0534
B5 |  |  | 0.0483
